# Assay results reported in patent US20240092930A1 (MABWELL SHANGHAI BIOSCIENCE, published 2024).
# T1: recombinant human Trop-2-his protein (ACCESSION NO.: NP_002344.2, AA 1-274) (human, UniProt P09758 27-274)
# T1 construct: range 27-274; also called recombinant human Trop-2 protein; recombinant human Trop-2 extracellular domain; not shown: his tag
# T1 sequence (looked up): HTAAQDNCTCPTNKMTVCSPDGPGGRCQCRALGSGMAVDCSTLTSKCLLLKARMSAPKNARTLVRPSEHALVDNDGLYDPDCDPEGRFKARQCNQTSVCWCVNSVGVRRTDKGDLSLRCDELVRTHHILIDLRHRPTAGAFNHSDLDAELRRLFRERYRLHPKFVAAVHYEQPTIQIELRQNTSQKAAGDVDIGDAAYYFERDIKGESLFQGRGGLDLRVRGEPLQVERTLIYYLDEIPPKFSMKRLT
# T2: human Trop-2 on the surface of cells (CHO/Trop-2 cells; BxPC-3 cells; NCI-N87 cells) (human, UniProt P09758 27-323)
# T2 sequence (looked up): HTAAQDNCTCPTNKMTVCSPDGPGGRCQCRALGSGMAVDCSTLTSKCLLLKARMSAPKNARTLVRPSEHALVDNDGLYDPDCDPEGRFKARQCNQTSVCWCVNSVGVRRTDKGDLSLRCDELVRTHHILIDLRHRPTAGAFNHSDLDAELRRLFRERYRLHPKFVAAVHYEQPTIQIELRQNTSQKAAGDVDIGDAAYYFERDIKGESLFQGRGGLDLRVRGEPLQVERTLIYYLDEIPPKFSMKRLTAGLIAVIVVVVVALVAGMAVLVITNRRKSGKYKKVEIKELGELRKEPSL
# B1: Sacituzumab (antibody, human IgG1, kappa, V domains shown)
# VH: QVQLQQSGSELKKPGASVKVSCKASGYTFTNYGMNWVKQAPGQGLKWMGWINTYTGEPTYTDDFKGRFAFSLDTSVSTAYLQISSLKADDTAVYFCARGGFGSSYWYFDVWGQGSLVTVSS
# VL: DIQLTQSPSSLSASVGDRVSITCKASQDVSIAVAWYQQKPGKAPKLLIYSASYRYTGVPDRFSGSGSGTDFTLTISSLQPEDFAVYYCQQHYITPLTFGAGTKVEIKR
# notes: expressed in HEK293; also called control antibody Sacituzumab; Saituzumab
# How the values were obtained:
# [1] = biological target: T1, recombinant human Trop-2-his protein …; assay: BLI, antibody on AHC sensor, Trop-2-his 60 nM
# Procedure, shortened: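 Humanized antibodies at 4 μg/ml in PBS captured via Fc on anti-human IgG Fc (AHC) biosensors for 120 s; 60 nM Trop-2-his (AA 1-274) as analyte, 100 s association, 300 s dissociation. Blank-subtracted responses fitted to 1:1 Langmuir model for kinetic constants.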
# [2] = biological target: T2, human Trop-2 on the surface of cells …; assay: cell-based or functional assay
# [3] = biological target: T2, human Trop-2 on the surface of cells …; assay: FACS, CHO/Trop-2 cells
# Method: Suspensions of CHO cells recombinantly expressing human Trop-2 (CHO/Trop-2 cells) were incubated with chimeric antibodies ch3-11, ch4-3, ch17-1, ch11-4, and ch23-12 (dilutions at concentrations of 30 μg/ml and 10 μg/ml, and serial dilutions of 9 concentrations obtained through 3-fold serially diluting a solution with an initial concentration of 5 μg/ml, 11 concentrations in total) for 30 min at 37° C. Controls as follows were set: (1) Positive Control (PC): control antibody Sacituzumab; (2) Negative Control (NC): IgG1 isotype control antibody NC-IgG1. The cells were washed 3 times with PBS, and 1:100 dilution of goat anti-human IgG-FITC (Cat.: F9512, Sigma) was added into the cell which then were incubated for 30 min. Then the cells were washed 3 times with PBS again, and the Mean Fluorescence Intensity (MFI) of the cells was measured by a flow cytometer (model B49007AD, SNAW31211, BECKMAN COULTER) to detect binding ability of the chimeric antibodies to human Trop-2 on the surface of CHO cells.
binder,measurement,setting,value
B1,Kd,[1],0.723 nM
same,"Internalization percentage (%), 1 h, BxPC-3 cells, FACS",[2],17.2%
same,"Internalization percentage (%), 3 h, BxPC-3 cells, FACS",[2],21.8%
same,"Internalization percentage (%), 5 h, BxPC-3 cells, FACS",[2],20.4%
same,EC50,[3],2.32 nM
